B1: PPP2R2C (parent)
chain: YSSSKGSLRLCDMRAAALCDKHSK

Variants of: B1
Experiment: protein stability index of a GFP-peptide fusion (GPS, HEK-293T) (PSI 1-6); higher = more stable
Conditions: c terminus: a fixed tail appended
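Note: lentivirally expressed fusions sorted by FACS into six bins by GFP to DsRed ratio, PSI derived from sequencing read proportions per bin multiplied by bin number.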

Protein stability index: each site, then its substitutions
G6: W 1.76; P 2.48; T 2.07; L 2.18; H 2.04; Y 1.52; N 1.94; S 1.82; C 1.95; E 2.68; Q 2.39
S4: G 2.87; N 2.32; A 2.44; H 2.09; L 2.62; Q 2.32; K 1.34; V 2.45; T 1.8; F 2.27; I 2.06; R 2.11; M 2; C 1.38; Y 1.98
K24: N 2.15; W 2.51; M 2.11; H 1.43; R 1.9; T 2.39; C 1.21; D 2.22; P 1.9; E 1.96; I 2.06
Y1: K 3.79; W 2.92; L 3.65; T 4.13; C 2.98; M 3.54; E 4.47; R 3.81; F 2.31; I 3.73; H 3.72; P 3.65; G 3.72
S3: Q 2.45; E 2.53; W 2.15; T 2.11; L 2.7; P 2.79; R 2.29; A 2.93; C 3.48; Y 1.83; H 2.52; V 1.96; N 2.48; M 2.84
L18: R 1.96; F 1.69; K 1.73; G 1.52; E 1.9; M 1.13; P 1.58; A 2.15; T 1.81; S 1.79; D 1.48; Y 1.8
C19: R 2.06; T 1.71; W 1.69; H 1.56; M 1.68; F 2.32; P 1.84; V 1.4; Q 1.69; E 1.62; K 2.14; N 1.58
S2: D 3.89; W 1.89; H 2; T 2; P 2.5; E 3.84; L 2.52; N 3.28; A 2.44
L10: H 3.04; I 2.9; G 3.53; Q 3.79; C 2.95; N 3.67; R 3.16; A 3.72; D 4.23; F 2.22; V 3.54; M 1.92
S23: M 2.19; T 1.88; K 1.82; W 1.35; I 2.01; G 1.76; Y 2.52; R 1.78; V 2.4; H 2.96; E 1.81; Q 1.85; P 1.42; D 1.86
C11: H 3.63; A 2.96; W 1.2; S 3.16; P 4.05; E 3.85; T 2.88; Y 2.75; M 2.29; D 3.74
D20: I 2.17; L 2.05; A 1.64; K 2.6; G 2.62; C 1.41; R 3.31; T 2.18; E 1.97; V 2.58; W 2.31
R14: H 2.34; P 1.8; V 1.81; Y 2.45; A 2.03; W 1.69; G 2.13; N 2.48; K 1.68; M 2.29; T 1.98; F 2.27
M13: L 2; G 2; C 1.73; R 1.68; Q 1.83; I 2.08; H 1.56; K 2.08; A 1.52; W 1.61; P 2.21
K5: Q 2.12; M 2.1; A 1.65; W 2.11; I 2.19; C 1.68; E 1.73; D 2.06; V 1.55; T 2.23; S 2.27; L 1.93; F 1.84; G 1.49; H 1.68
L8: N 2.36; P 2.27; A 1.75; Y 1.36; D 2.76; C 2.5; G 2.19; W 2.39; K 2.17; Q 1.89; F 2.5; H 2.64
K21: D 1.78; E 1.26; Y 1.95; S 2.21; T 1.86; A 2.35; W 2.12; P 2.79; C 2.48; L 1.29; I 1.48; M 1.96; R 1.69
D12: W 2.7; F 1.52; C 1.99; R 2.36; I 1.6; H 3.2; M 1.78; L 1.82; A 2.32; T 2.69; E 2.71; K 2.54; V 2.11; Q 2.76; G 1.93
S7: D 2.24; C 1.76; N 1.65; G 4.06; T 1.8; W 3.69; H 2.92; R 2.04; Y 1.94; M 1.76
A16: E 2.28; P 1.64; M 1.5; F 2.2; W 1.23; D 2.85; Q 2.18; Y 1.63; G 2.55; I 1.84; K 2.53; S 2.02
A17: N 3.18; Q 3.18; R 1.78; E 2.16; L 1.75; V 3.45; H 2.29; P 2.1; G 1.61; T 1.52; S 1.31; F 2.36; Y 2.06
A15: L 1.54; S 2.31; P 2.43; R 1.38; C 1.14; T 2.09; F 2.4; Y 2.34; I 1.96; K 1.58; H 1.78; W 1.81; G 2.24; Q 1.77
H22: D 1.79; G 2.31; L 1.6; I 2.22; Y 1.91; P 1.16; K 1.54; M 1.7; R 1.56; T 2.11; S 1.62; A 2.02
R9: F 2.37; Q 3.3; Y 1.76; H 2.42; E 3.7; K 3.11; G 1.9; A 2.63; M 1.9; S 3.81; T 3.28; C 3.28; N 3.45
